In publication PMC8649778:

Target: APRc_(110–231)His, soluble domain of APRc fused to a C-terminal His tag (Rickettsia conorii) (UniProt Q92FY8)
Assay: shift of migration in nonreducing SDS-PAGE with Western blot

Substance: APRc_(110–231)His, soluble domain of APRc fused to a C-terminal His tag (from UniProt Q92FY8 110-231) (domain or fragment)
- stoichiometry N: 2
